Test results taken from US20260139048A1 (NANJING LEGEND BIOTECH, published 2026).
Like-named read-outs stand apart in the source and are kept apart here.

T1: His-tagged human TIGIT (human, UniProt Q495A1 22-141)
T1 construct: SPR analyte; also called human TIGIT protein; not shown: His tag
T1 sequence: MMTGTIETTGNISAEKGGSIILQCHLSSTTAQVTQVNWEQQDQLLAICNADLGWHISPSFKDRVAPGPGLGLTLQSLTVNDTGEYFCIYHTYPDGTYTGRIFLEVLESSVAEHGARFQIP

T2: TIGIT on TIGIT-over expressing NFAT-Luc/Jurkat effector cells (GenScript reporter cell line) (UniProt Q495A1 22-244, limits assumed)
T2 sequence (looked up): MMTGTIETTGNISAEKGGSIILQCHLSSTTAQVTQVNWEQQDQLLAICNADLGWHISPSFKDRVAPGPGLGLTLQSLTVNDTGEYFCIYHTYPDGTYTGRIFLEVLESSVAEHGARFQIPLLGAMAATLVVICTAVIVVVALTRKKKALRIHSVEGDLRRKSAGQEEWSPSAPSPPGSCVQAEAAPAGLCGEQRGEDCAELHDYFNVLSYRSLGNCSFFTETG

T3: human TIGIT expressed on CHO-K1 cells (human, UniProt Q495A1 22-244)
T3 construct: whole, on cells; also called human TIGIT-CHO-K1 cells; human TIGIT over-expressing cell line
T3 sequence (looked up): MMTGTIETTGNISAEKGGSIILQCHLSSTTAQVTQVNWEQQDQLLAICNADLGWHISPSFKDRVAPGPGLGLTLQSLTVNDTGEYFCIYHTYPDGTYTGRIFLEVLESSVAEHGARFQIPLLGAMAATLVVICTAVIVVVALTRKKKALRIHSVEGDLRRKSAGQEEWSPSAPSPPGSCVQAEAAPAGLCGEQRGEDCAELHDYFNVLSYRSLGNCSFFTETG


What was measured:
His-tagged human TIGIT [1] = target: T1, His-tagged human TIGIT; assay: SPR (Biacore T200), antibody captured, His-tagged TIGIT analyte
[2] = target: T4, His-tagged cynomolgus TIGIT (cynomolgus, UniProt A0A7N9I9V4 89-209); assay: as above
T4 construct: SPR analyte; also called cynomolgus TIGIT protein; not shown: His tag

[3] = target: T2, TIGIT on TIGIT-over expressing …; assay: cell-based or functional assay
[4] = target: T3, human TIGIT expressed on CHO-K1 cells; assay: flow cytometry on CHO-K1 cells expressing human TIGIT
[5] = target: T3, human TIGIT expressed on CHO-K1 cells; assay: flow cytometry competition: biotinylated CD155-Fc on human TIGIT-CHO-K1 cells
His-tagged human TIGIT [6] = target: T1, His-tagged human TIGIT; assay: SPR experiment 1, IgG from HEK293 supernatant captured
[7] = target: T5, cynomolgus TIGIT expressed on CHO-K1 cells (cynomolgus, UniProt A0A7N9I9V4 89-312); assay: flow cytometry on CHO-K1 cells expressing cynomolgus TIGIT
T5 construct: whole, on cells; also called cynomolgus TIGIT over-expressing cell line

His-tagged human TIGIT [8] = target: T1, His-tagged human TIGIT; assay: SPR (Biacore T200), antibody captured, His-tagged TIGIT analyte; remark: listed apart in the source
[9] = target: T4, His-tagged cynomolgus TIGIT; assay: as above; remark: listed apart in the source
[10] = target: T2, TIGIT on TIGIT-over expressing …; assay: cell-based or functional assay; remark: listed apart in the source
His-tagged human TIGIT [11] = target: T1, His-tagged human TIGIT; assay: SPR experiment 4, IgG from HEK293 supernatant captured
[12] = target: T5, cynomolgus TIGIT expressed on CHO-K1 …; assay: flow cytometry on CHO-K1 cells expressing cynomolgus TIGIT; remark: listed apart in the source
[13] = target: T3, human TIGIT expressed on CHO-K1 cells; assay: flow cytometry on CHO-K1 cells expressing human TIGIT; remark: listed apart in the source
[14] = target: T3, human TIGIT expressed on CHO-K1 cells; assay: flow cytometry competition: biotinylated CD155-Fc on human TIGIT-CHO-K1 cells; remark: listed apart in the source
His-tagged human TIGIT [15] = target: T1, His-tagged human TIGIT; assay: SPR experiment 2, IgG from HEK293 supernatant captured
His-tagged human TIGIT [16] = target: T1, His-tagged human TIGIT; assay: SPR experiment 1, IgG from HEK293 supernatant captured; remark: listed apart in the source
His-tagged human TIGIT [17] = target: T1, His-tagged human TIGIT; assay: SPR experiment 2, IgG from HEK293 supernatant captured; remark: listed apart in the source
[18] = target: T5, cynomolgus TIGIT expressed on CHO-K1 …; assay: flow cytometry on TIGIT over-expressing CHO-K1 cells
His-tagged human TIGIT [19] = target: T1, His-tagged human TIGIT; assay: SPR, IgG from HEK293 supernatant; against 19VH + 19VL

T5 sequence (A0A7N9I9V4 entry or part of it): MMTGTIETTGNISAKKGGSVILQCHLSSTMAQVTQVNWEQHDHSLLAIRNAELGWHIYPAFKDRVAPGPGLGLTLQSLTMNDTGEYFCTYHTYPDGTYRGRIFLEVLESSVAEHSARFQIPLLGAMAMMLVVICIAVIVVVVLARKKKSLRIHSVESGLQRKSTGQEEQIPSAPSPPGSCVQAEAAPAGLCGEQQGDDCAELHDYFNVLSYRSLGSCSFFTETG
T4 sequence (A0A7N9I9V4 entry or part of it): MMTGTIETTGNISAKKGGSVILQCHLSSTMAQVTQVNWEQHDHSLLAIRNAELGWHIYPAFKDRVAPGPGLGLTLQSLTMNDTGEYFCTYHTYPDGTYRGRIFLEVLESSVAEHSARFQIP

| Kd (His-tagged human TIGIT [1]) | koff (His-tagged human TIGIT [1]) | kon (His-tagged human TIGIT [1]) | Kd [2] | koff [2] | kon [2] | Bottom (RLU) [3] | EC50 [3] | Top (RLU) [3] | EC50 [4] | IC50 [5] | EC50 [7] | Kd (His-tagged human TIGIT [8]) | koff (His-tagged human TIGIT [8]) | kon (His-tagged human TIGIT [8]) | Kd [9] | koff [9] | kon [9] | Bottom (RLU) [10] | IC50 [14] | Binder | other results |
| --- | --- | --- | --- | --- | --- | --- | --- | --- | --- | --- | --- | --- | --- | --- | --- | --- | --- | --- | --- | --- | --- |
| 0.081 nM | 5.9e-05 s⁻¹ | 730000 M⁻¹ s⁻¹ | 1.8 nM | 0.0002 s⁻¹ | 110000 M⁻¹ s⁻¹ | 55800 RLU | 2.1 nM | 148000 RLU | 0.346 nM | 0.38 nM | 1.42 nM | 0.075 nM | 4.7e-05 s⁻¹ | 630000 M⁻¹ s⁻¹ | 0.45 nM | 5.3e-05 s⁻¹ | 120000 M⁻¹ s⁻¹ | 11200 RLU | 0.558 nM | TIGIT-3 chimeric antibody (antibody, human IgG1, kappa, V domains shown, also called 3VH + 3VL) VH: EVQLVESGGGLVQPGGSLKLSCAASGFTFSSYGMSWVRQTPDKRLELVATIKSDGGSTNLPDSVKGRFTISRDNAKNTLHLQMSSLKSEDTAMYYCVRGYFDYWGQGTSVTVSS VL: DIVMTQSHKFMSTSVGDRVSITCKASQDVKTAVAWYQQKPGQSPKLLIYWSSTRHTGVPDRFTGSRSLTDHTLTISSVQAEDLALYYCQQYYSTPYTFGGGTKLELKR | Kd (His-tagged human TIGIT [6]): 0.24 nM; koff (His-tagged human TIGIT [6]): 0.00012 s⁻¹; kon (His-tagged human TIGIT [6]): 510000 M⁻¹ s⁻¹; EC50 [10]: 2.77 nM; Top (RLU) [10]: 42800 RLU; Kd (His-tagged human TIGIT [11]): 0.28 nM; koff (His-tagged human TIGIT [11]): 0.00017 s⁻¹; kon (His-tagged human TIGIT [11]): 610000 M⁻¹ s⁻¹; EC50 [12]: 2 nM; EC50 [13]: 0.53 nM |
| 0.071 nM | 0.0001 s⁻¹ | 1.5e+06 M⁻¹ s⁻¹ | 0.091 nM | 6.6e-05 s⁻¹ | 730000 M⁻¹ s⁻¹ | 47600 RLU | 2.75 nM | 130000 RLU | 0.311 nM | 0.4 nM | 0.524 nM | 0.04 nM | 5.9e-05 s⁻¹ | 1.5e+06 M⁻¹ s⁻¹ | 0.032 nM | 3.2e-05 s⁻¹ | 1e+06 M⁻¹ s⁻¹ | 11100 RLU | 0.26 nM | TIGIT-19 chimeric antibody (antibody, human IgG1, kappa, V domains shown, also called 19VH + 19VL) VH: QVQLQQPGPELVKPGTSVMLSCKASGYAFSRYSMYWVKQSHGKSLEWIAFIDPYNGGSTYNQRFRGKATLTVDKSSSTAYMHLNTLTSDDSAVYYCARGGDYGWYLGVWGAGTTVTVSS VL: DIQMTQSPASLSASVGETVTITCRPSENIYTYLSWYQQKRGKSPQLLVYNAKTLPENVPSRFSGSGSGTQFSLKIDSLQPEDFGNYYCQHHYGNPLTFGAGTKLELKR | Kd (His-tagged human TIGIT [15]): 0.12 nM; koff (His-tagged human TIGIT [15]): 0.00015 s⁻¹; kon (His-tagged human TIGIT [15]): 1.2e+06 M⁻¹ s⁻¹; EC50 [10]: 3.28 nM; Top (RLU) [10]: 41600 RLU; EC50 [12]: 1.05 nM; Kd (His-tagged human TIGIT [16]): 0.071 nM; koff (His-tagged human TIGIT [16]): 9.7e-05 s⁻¹; kon (His-tagged human TIGIT [16]): 1.4e+06 M⁻¹ s⁻¹; EC50 [13]: 0.41 nM |
| – | – | – | – | – | – | 46800 RLU | 14.8 nM | 128000 RLU | 1.02 nM | – | 16.7 nM | 0.58 nM | 0.00019 s⁻¹ | 330000 M⁻¹ s⁻¹ | 260 nM | 0.013 s⁻¹ | 47000 M⁻¹ s⁻¹ | – | 1.17 nM | huTIGIT-6-4 (antibody, human IgG1, kappa, V domains shown, Humanized IgG; also called 6VH6.M7 + 6VL1.M1) VH: QVQLVQSGAEVKKPGASVKVSCKASGYTFTENAMHWVRQAPGQRLEWIGGINPNNAGTSYSQKFQGRATLTVDTSASTAYMELSSLRSEDTAVYYCTRSSYYRYDLDYWGQGTTVTVSS VL: DIQMTQSPSSLSASVGDRVTITCQASQDIKTALAWYQQKPGKAPKLLIYSASYRYTGVPSRFSGSGSGTDFTFTISSLQPEDIATYYCHQHYTTPWTFGGGTKLEIKR | Kd (His-tagged human TIGIT [17]): 0.75 nM; koff (His-tagged human TIGIT [17]): 0.00023 s⁻¹; kon (His-tagged human TIGIT [17]): 300000 M⁻¹ s⁻¹; fold EC50 on cynomolgus against human TIGIT cell line [18]: > 10 fold |
| – | – | – | – | – | – | – | – | – | – | – | – | – | – | – | – | – | – | – | – | humanized TIGIT-19 antibody 19VH4 + 19VL1 (antibody, V domains shown, Full-length IgG, tested as HEK293 supernatant) VH: QVQLVQSGAEVKKPGASVKVSCKASGYAFSRYSMYWVRQAPGQGLEWIAFIDPYNGGSTYNQRFRGKATLTVDTSISTAYMELSRLRSDDTAVYYCARGGDYGWYLGVWGQGTLVTVSS VL: DIQMTQSPSSLSASVGDRVTITCRPSENIYTYLSWYQQKPGKAPKLLIYNAKTLPEGVPSRFSGSGSGTDFTLTISSLQPEDFATYYCQHHYGNPLTFGQGTKVEIK | Kd (His-tagged human TIGIT [15]): 0.028 nM; koff (His-tagged human TIGIT [15]): 3.3e-05 s⁻¹; kon (His-tagged human TIGIT [15]): 1.2e+06 M⁻¹ s⁻¹; fold improvement of binding affinity (His-tagged human TIGIT [19]): ~4 fold; Kd (His-tagged human TIGIT [16]): 0.0196 nM; koff (His-tagged human TIGIT [16]): 2.51e-05 s⁻¹; kon (His-tagged human TIGIT [16]): 1.28e+06 M⁻¹ s⁻¹ |
